Test results from US20150266967A1 (Boehringer Ingelheim, published 2015).

B1: CD37 antibody A2 (antibody, human IgG1, kappa)
heavy: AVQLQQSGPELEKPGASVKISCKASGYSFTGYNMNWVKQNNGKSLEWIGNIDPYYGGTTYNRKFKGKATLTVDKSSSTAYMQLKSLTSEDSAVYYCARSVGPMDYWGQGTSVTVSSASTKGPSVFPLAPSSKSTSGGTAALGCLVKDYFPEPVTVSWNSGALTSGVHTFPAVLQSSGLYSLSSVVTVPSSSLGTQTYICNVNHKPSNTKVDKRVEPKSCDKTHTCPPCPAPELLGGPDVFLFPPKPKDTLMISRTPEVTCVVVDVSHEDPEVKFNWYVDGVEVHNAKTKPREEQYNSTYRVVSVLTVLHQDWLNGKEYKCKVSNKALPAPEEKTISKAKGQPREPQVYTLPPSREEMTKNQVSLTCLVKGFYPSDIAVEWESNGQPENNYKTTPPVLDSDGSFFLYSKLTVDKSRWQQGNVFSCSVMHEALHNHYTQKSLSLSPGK
light: DIQMTQSPASLSASVGETVTITCRTSENVYSYLAWYQQKQGKSPQLLVSFAKTLAEGVPSRFSGSGSGTQFSLKISSLQPEDSGSYFCQHHSDNPWTFGGGTELEIKRTVAAPSVFIFPPSDEQLKSGTASVVCLLNNFYPREAKVQWKVDNALQSGNSQESVTEQDSKDSTYSLSSTLTLSKADYEKHKVYACEVTHQGLSSPVTKSFNRGEC
notes: Fc-engineered CD37 antibody; copies: 2 + 2
B2: CD37 antibody B2 (antibody, human IgG1, kappa)
heavy: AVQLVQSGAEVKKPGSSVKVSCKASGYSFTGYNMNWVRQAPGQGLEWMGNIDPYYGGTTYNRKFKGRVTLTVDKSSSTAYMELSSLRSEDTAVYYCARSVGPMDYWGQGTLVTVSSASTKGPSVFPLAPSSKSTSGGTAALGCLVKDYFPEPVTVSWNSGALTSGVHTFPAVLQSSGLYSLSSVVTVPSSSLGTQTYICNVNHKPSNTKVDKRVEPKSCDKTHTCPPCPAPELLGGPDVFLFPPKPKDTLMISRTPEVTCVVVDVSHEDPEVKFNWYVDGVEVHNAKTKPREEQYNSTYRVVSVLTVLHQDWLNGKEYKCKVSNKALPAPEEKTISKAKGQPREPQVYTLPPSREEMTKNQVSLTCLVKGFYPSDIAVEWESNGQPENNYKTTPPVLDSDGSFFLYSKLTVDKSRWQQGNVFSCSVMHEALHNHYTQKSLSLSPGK
light: DIQMTQSPSSLSASVGDRVTITCRTSENVYSYLAWYQQKPGKAPKLLVSFAKTLAEGVPSRFSGSGSGTDFTLTISSLQPEDFATYFCQHHSDNPWTFGQGTKVEIKRTVAAPSVFIFPPSDEQLKSGTASVVCLLNNFYPREAKVQWKVDNALQSGNSQESVTEQDSKDSTYSLSSTLTLSKADYEKHKVYACEVTHQGLSSPVTKSFNRGEC
notes: as for B1

Assays:
[1] = biological target: T1, recombinant Fcγ-receptor 3a protein, high affinity V158 allotype (UniProt P08637 17-208); assay: surface plasmon resonance, KD from ka and kd
T1 construct: also called Fcγ-receptor 3a V158; FC gamma receptor 3a

[2] = biological target: T1, recombinant Fcγ-receptor 3a protein, …; assay: surface plasmon resonance, KD compared with reference antibody
[3] = biological target: T2, recombinant Fcγ-receptor 3a protein, low affinity F158 allotype (UniProt P08637 17-208); assay: surface plasmon resonance, KD from ka and kd; A2, F158 allotype
T2 construct: F158 allotype; also called Fcγ-receptor 3a F158; FC gamma receptor 3a

[4] = biological target: T2, recombinant Fcγ-receptor 3a protein, …; assay: surface plasmon resonance, KD from ka and kd; B2, F158 allotype

T1 sequence (P08637 17-208 F176V): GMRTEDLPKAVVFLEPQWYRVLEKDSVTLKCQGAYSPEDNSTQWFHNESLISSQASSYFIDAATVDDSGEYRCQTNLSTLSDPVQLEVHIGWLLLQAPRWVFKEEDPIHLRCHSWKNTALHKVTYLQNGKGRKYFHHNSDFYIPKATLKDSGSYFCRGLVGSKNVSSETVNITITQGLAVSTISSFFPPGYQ
T2 sequence (P08637 17-208 limits assumed): as the sequence (P08637 17-208 F176V) above, with V160F counted along it

Binder	Kd [1] [nM]	fold increased binding against the non Fc-engineered IgG1 reference antibody [2] [fold]	Kd [3] [nM]	Kd [4] [nM]
B1	8.8	~40	17.5	
B2	9.3	~40		21.1
